Measured values taken from patent US20260028400A1 (AIMED BIO, published 2026).
Read-outs that look alike come from different tables or passages of the source.

Tests used:
[1] = molecular target: T1, ROR1 expressed on cell surface (Jeko-1 cell line, AMB-LC-0003T and AMB-LC-0002T patient-derived lung cancer … (human, UniProt Q01973 30-937)); experiment: cell-based or functional assay
[2] = molecular target: T1, ROR1 expressed on cell surface (Jeko-1 …); experiment: cell-based or functional assay; remark: listed apart in the source
[3] = molecular target: T1, ROR1 expressed on cell surface (Jeko-1 …); experiment: cell-based or functional assay; remark: listed apart in the source
[4] = molecular target: T1, ROR1 expressed on cell surface (Jeko-1 …); experiment: flow cytometry on AMB-LC-0003T patient-derived lung cancer cells
Protocol: (§1) Before therapeutic use of anti-ROR1 antibodies, it is very important to determine whether the antibody binds to the antigen expressed on the cell surface. The cell binding ability of anti-ROR1 antibodies developed by the present inventors was measured using FACS in Jeko-1 cell line and AMB-LC-0003T patient-derived cells, which were confirmed to have high ROR1 expression. Each cell type was dispensed at 1×10⁵ cells/100 μl FACS buffer per well in a 96-well plate.
(§2) Cell binding ability analysis was performed using anti-ROR1 candidate antibodies P015004, P015042, P015043, P015044, P015042v1 with improved biological and physical properties, and P015042v1-6, one of modified materials thereof. Each antibody was serially diluted 10-fold from 100 nM to 10 nM, 1 nM, 100 pM, 10 pM, and 1 pM and the cells were treated therewith. After reaction at 4° C. for 30 minutes, washing was performed twice. PE-labeled goat anti-human IgG Fc PE (ThermoFisher; 12-4998-82) as a secondary antibody was diluted at a ratio of 1:100 in FACS buffer, and 100 μl thereof was dispensed per well. Reaction again at 4° C. for 30 minutes and washing twice were performed. Finally, 100 μl of FACS buffer was dispensed per well, followed by mixing well with a pipette and then flow cytometry using a NovoCyte flow cytometer (Agilent). Analysis was performed using GraphPad Prism 9.3.1, and EC₅₀ values were obtained using a log (agonist) vs. response-Variable slope nonlinear graph model.

mouse ROR1 = molecular target: T2, mouse ROR1 (mouse, UniProt Q9Z139 30-403, limits assumed); experiment: SPR (Biacore 3000), mouse ROR1 on CM5 chip, IgG injected, 1:1 Langmuir
T2 construct: also called mouse ROR1 protein
Protocol: (§3) To more quantitatively analyze the binding ability of the anti-ROR1 antibody to ROR1, SPR (surface plasmon resonance) was performed. A Biacore 3000 device (GE Healthcare) was used. Using the amine coupling method, human ROR1 or mouse ROR1 was diluted with 10 mM sodium acetate, pH 4.5 and immobilized on a CM5 sensor chip (GE Healthcare) at 300 response units (RU). The activated portion remaining on the surface of the sensor chip was deactivated by adding 1 M ethanolamine-HCl (pH 8.5).

Ig+FZD = molecular target: T3, Ig+FZD (human); experiment: ELISA, IgG on coated domain, OD450
T3 construct: Ig-like plus frizzled domains, His tag; also called IF domain; human ROR1-immunoglobulin-frizzled domain
Protocol: (§4) ELISA was performed to analyze the binding domain using the IgG antibody of the selected clone.
(§5) After washing with PBST and distilled water, binding at room temperature for 1 hour using a goat-derived HRP-conjugated anti-human antibody (Invitrogen, 31482, Goat anti-Human IgG F(ab′)₂ Secondary Antibody, HRP) and then washing again using PBST and distilled water were performed. After color development by adding TMB substrate solution (Thermo Scientific, 34029, 1-Step™ Ultra TMB-ELISA Substrate Solution), the color reaction was stopped with stop solution (Invitrogen, SS04, ELISA Stop Solution), and the absorbance was measured at OD 450 nm. The anti-ROR1 antibody clone binding to each domain was analyzed through ELISA (FIG. 3).

Ig-like = molecular target: T4, Ig-like (human, UniProt Q01973); experiment: ELISA, IgG on coated domain, OD450
T4 construct: Ig-like domain, His tag; also called Ig-like domain; human ROR1-immunoglobulin domain
Protocol: as §4, §5

FZD = molecular target: T5, FZD (human, UniProt Q01973); experiment: ELISA, IgG on coated domain, OD450
T5 construct: frizzled domain, His tag; also called Frizzled domain; human ROR1-frizzled domain
Protocol: as §4, §5

FZD+KRD = molecular target: T6, FZD+KRD (human, UniProt Q01973); experiment: ELISA, IgG on coated domain, OD450
T6 construct: frizzled plus kringle domains, His tag; also called FK domain; human ROR1-frizzled-kringle domain
Protocol: as §4, §5

[5] = molecular target: T1, ROR1 expressed on cell surface (Jeko-1 …); experiment: flow cytometry on Jeko-1 cells
Protocol: as §1, §2

human ROR1 = molecular target: T7, human ROR1 (human, UniProt Q01973 30-403, limits assumed); experiment: SPR (Biacore 3000), human ROR1 on CM5 chip, IgG injected, 1:1 Langmuir
T7 construct: also called human ROR1 protein
Protocol: as §3

T6 sequence (Q01973 165-395 limits assumed): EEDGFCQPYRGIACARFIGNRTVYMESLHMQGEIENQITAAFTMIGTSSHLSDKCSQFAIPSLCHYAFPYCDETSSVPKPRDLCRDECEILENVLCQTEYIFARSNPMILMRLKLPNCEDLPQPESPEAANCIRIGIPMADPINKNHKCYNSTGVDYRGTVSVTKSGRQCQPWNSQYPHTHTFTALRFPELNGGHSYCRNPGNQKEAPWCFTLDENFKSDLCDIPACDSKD
T7 sequence (Q01973 30-403 limits assumed): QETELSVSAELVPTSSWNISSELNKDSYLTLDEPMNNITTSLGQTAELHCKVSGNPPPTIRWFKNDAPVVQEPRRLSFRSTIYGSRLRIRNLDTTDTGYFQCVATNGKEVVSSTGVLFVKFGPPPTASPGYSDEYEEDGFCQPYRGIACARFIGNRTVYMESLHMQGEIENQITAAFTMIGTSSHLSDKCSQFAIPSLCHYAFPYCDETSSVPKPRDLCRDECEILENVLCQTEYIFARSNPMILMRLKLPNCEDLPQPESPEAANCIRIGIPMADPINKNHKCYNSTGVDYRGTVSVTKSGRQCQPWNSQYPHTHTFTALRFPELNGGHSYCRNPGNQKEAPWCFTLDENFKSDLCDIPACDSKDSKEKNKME
T2 sequence (Q9Z139 30-403 limits assumed): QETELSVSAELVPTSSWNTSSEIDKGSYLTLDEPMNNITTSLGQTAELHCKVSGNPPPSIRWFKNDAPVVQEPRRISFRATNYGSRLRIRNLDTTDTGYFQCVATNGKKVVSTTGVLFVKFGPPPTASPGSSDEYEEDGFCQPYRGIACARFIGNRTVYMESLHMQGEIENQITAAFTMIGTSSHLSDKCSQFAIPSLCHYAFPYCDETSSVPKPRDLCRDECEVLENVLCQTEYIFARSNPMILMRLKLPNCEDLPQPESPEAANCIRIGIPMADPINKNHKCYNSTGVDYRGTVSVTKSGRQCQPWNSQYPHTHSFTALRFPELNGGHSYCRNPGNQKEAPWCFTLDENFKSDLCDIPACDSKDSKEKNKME
T5 sequence (Q01973 165-305 limits assumed): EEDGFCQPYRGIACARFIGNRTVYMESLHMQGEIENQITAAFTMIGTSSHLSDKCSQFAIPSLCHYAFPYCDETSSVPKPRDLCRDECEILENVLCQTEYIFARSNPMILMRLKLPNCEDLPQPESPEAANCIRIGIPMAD
T1 sequence (Q01973 30-937): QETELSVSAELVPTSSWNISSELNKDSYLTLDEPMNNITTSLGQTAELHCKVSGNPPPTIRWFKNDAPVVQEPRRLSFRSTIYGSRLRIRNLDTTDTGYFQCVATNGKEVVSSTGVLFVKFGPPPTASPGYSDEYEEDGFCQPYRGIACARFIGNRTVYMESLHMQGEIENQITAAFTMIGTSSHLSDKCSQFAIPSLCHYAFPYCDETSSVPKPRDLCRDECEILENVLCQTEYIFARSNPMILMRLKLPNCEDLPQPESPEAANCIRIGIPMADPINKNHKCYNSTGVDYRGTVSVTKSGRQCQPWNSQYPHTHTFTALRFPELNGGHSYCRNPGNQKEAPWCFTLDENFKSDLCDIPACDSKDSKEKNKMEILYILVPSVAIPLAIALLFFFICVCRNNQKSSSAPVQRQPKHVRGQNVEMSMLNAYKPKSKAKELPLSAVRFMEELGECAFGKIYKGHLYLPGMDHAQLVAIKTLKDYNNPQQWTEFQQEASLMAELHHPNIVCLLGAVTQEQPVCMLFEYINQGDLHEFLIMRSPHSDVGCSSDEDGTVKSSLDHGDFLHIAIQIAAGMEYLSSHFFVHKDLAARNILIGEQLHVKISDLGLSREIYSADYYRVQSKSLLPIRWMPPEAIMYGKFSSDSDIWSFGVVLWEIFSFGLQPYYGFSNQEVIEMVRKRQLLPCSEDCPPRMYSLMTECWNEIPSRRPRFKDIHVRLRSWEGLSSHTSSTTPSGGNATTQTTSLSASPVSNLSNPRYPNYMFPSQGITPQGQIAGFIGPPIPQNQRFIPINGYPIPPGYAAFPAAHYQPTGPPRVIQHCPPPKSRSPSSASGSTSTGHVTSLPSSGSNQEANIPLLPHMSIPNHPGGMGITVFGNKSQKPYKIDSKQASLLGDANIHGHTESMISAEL
T4 sequence (Q01973 39-151 limits assumed): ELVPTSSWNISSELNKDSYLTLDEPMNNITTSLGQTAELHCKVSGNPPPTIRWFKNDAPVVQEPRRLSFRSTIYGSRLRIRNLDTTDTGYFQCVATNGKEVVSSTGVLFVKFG
T3 sequence (Q01973 30-305): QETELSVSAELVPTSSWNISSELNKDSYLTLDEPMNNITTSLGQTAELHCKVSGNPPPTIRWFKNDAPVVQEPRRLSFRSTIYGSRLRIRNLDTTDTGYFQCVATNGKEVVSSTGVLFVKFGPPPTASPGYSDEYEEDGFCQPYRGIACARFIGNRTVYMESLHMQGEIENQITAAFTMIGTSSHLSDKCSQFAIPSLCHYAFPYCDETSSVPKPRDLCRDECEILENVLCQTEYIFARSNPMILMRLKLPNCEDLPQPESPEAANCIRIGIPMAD

Row | Binder | Fold Change of IC50, AMB-LC-0002T/AMB-LC-0003T [1] | IC50 (nM), spheroid volume after 6 days of treatment, AMB-LC-0003T (high ROR1 expression) [1] | IC50 (nM), spheroid volume, AMB-LC-0002T (very low ROR1 expression) [1] | IC50, spheroid volume, AMB-LC-0002T (low ROR1 expression) [2] | Fold Change of IC50, AMB-LC-0002T/AMB-LC-0003T [3] | IC50 (nM), spheroid volume, AMB-LC-0002T (low ROR1 expression) [3] | IC50 (nM), spheroid volume, AMB-LC-0003T (high ROR1 expression) [3] | EC50 [4] | Kd (mouse ROR1) | koff (mouse ROR1) | kon (mouse ROR1) | EC50 (read off the curve) (Ig+FZD) | EC50 (read off the curve) (Ig-like) | binding result (FZD) | binding result (FZD+KRD) | EC50 [5] | Kd (human ROR1) | koff (human ROR1) | kon (human ROR1) | binding result (Ig-like)
1 | P015042-vc-PAB-MMAE (antibody, IgG1, V domains shown, maleimidocaproyl-valine-citrulline-p-aminobenzyloxycarbonyl monomethyl auristatin E on cysteine sulfhydryls of reduced disulfides; positions not given; average 3.3 drugs per antibody) VH: EVQLLESGGGLVQPGGSLRLSCAASGFTFSDYAMSWVRQAPGKGLEWVSVISSDGGSIYYADSVKGRFTISRDNSKNTLYLQMNSLRAEDTAVYYCAKDRSRDMEVDFDYWGQGTLVTVSS VL: QSVLTQPPSASGTPGQRVTISCSGSSSNIGSNYVTWYQQLPGTAPKLLIYDSSQRPSGVPDRFSGSKSGTSASLAISGLRSEDEADYYCGTWDYSLSGYVFGGGTKLTVL | 56.3 fold | 2.88 nM | 162 nM | ≥ 100 nM | 81.4 fold | 187 nM | 2.3 nM | – | – | – | – | – | – | – | – | – | – | – | – | –
2 | P015004 (antibody, V domains shown) VH: EVQLLESGGGLVQPGGSLRLSCAASGFTFSDYAMAWVRQAPGKGLEWVSIIYPGDSETIYSPSFEGRFTISRDNSKNTLYLQMNSLRAEDTAVYYCARDTYWEGYFDLWGQGTLVTVSS VL: EIVLTQSPGTLSLSPGERATLSCRASQGISNYLAWYQQKPGQAPRLLIYDASNLESGIPDRFSGSGSGTDFTLTISRLEPEDFAVYYCQQYANLPYTFGQGTKVEIK | – | – | – | – | – | – | – | 4.6 nM | 0.328 nM | 0.00269 s⁻¹ | 8.18e+06 M⁻¹ s⁻¹ | ~3 nM | – | no binding (tested: 300 nM) | no binding (tested: 300 nM) | 8.16 nM | 0.325 nM | 0.00343 s⁻¹ | 1.06e+07 M⁻¹ s⁻¹ | no binding (tested: 300 nM)

The remaining binders from weak to strong by EC50 [4], led by results:

Row | Fold Change of IC50, AMB-LC-0002T/AMB-LC-0003T [1] | IC50 (nM), spheroid volume after 6 days of treatment, AMB-LC-0003T (high ROR1 expression) [1] | IC50 (nM), spheroid volume, AMB-LC-0002T (very low ROR1 expression) [1] | IC50, spheroid volume, AMB-LC-0002T (low ROR1 expression) [2] | Fold Change of IC50, AMB-LC-0002T/AMB-LC-0003T [3] | IC50 (nM), spheroid volume, AMB-LC-0002T (low ROR1 expression) [3] | IC50 (nM), spheroid volume, AMB-LC-0003T (high ROR1 expression) [3] | EC50 [4] | Kd (mouse ROR1) | koff (mouse ROR1) | kon (mouse ROR1) | EC50 (read off the curve) (Ig+FZD) | EC50 (read off the curve) (Ig-like) | binding result (FZD) | binding result (FZD+KRD) | EC50 [5] | Kd (human ROR1) | koff (human ROR1) | kon (human ROR1) | binding result (Ig-like) | Binder
3 | – | – | – | – | – | – | – | 1.78 nM | 1.21 nM | 0.00202 s⁻¹ | 1.67e+06 M⁻¹ s⁻¹ | – | – | no binding (tested: 300 nM) | no binding (tested: 300 nM) | 0.13 nM | 3.08 nM | 0.00382 s⁻¹ | 1.24e+06 M⁻¹ s⁻¹ | – | P015044 (antibody, V domains shown) VH: EVQLLESGGGLVQPGGSLRLSCAASGFTFSNYAMHWVRQAPGKGLEWVSIIYPDDDTRYNPSFRGRFTISRDNSKNTLYLQMNSLRAEDTAVYYCARDLLYAGDYWGQGTLVTVSS VL: QSVLTQPPSASGTPGQRVTISCGGNNIESKAVHWYQQLPGTAPKLLIYANNKRPSGVPDRFSGSKSGTSASLAISGLRSEDEADYYCQSYDSNKVVFGGGTKLTVL
4 | – | – | – | – | – | – | – | 0.15 nM | 0.102 nM | 0.000176 s⁻¹ | 1.72e+06 M⁻¹ s⁻¹ | ~0.4 nM | ~7 nM | no binding (tested: 300 nM) | no binding (tested: 300 nM) | 0.081 nM | 0.17 nM | 0.000239 s⁻¹ | 1.41e+06 M⁻¹ s⁻¹ | – | P015042 (antibody, V domains shown) VH: EVQLLESGGGLVQPGGSLRLSCAASGFTFSDYAMSWVRQAPGKGLEWVSVISSDGGSIYYADSVKGRFTISRDNSKNTLYLQMNSLRAEDTAVYYCAKDRSRDMEVDFDYWGQGTLVTVSS VL: QSVLTQPPSASGTPGQRVTISCSGSSSNIGSNYVTWYQQLPGTAPKLLIYDSSQRPSGVPDRFSGSKSGTSASLAISGLRSEDEADYYCGTWDYSLSGYVFGGGTKLTVL
